According to the supplement of paper PMC10567573:

B1: MNAT1 (parent)
chain: LEEALYEYQPLQIETYGPHVPELE
B2: NR2F2 (parent)
chain: VAHVESLQEKSQCALEEYVRSQYP

Variants of: B1
Assay: protein stability index of a GFP-peptide fusion (GPS, HEK-293T) (PSI 1-6); higher = more stable
Settings: c terminus: a fixed tail appended
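Further: lentivirally expressed fusions sorted by FACS into six bins by GFP to DsRed ratio, PSI derived from sequencing read proportions per bin multiplied by bin number.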

Variant | protein stability index
LEEALYEYQPLQFETYGPHVPELE | 4.34
LEEALYEYQPLQDETYGPHVPELE | 5.07
LEEALYEYQPLQNETYGPHVPELE | 5.5
LEEALYEYQPLQYETYGPHVPELE | 4.41
LEEALYEYQPLQEETYGPHVPELE | 5.29
LEEALYEYQPLLIETYGPHVPELE | 2.67
LEEALYEYQPLAIETYGPHVPELE | 2.33
LEEALYEYQPLQIETYGPHLPELE | 2.49
LEEALYEYQPLQIETYGPHVMELE | 2.53
LEEALYEDQPLQIETYGPHVPELE | 5.23
LEEALYEEQPLQIETYGPHVPELE | 5.4
LEEALYEYQPLQIETPGPHVPELE | 4.94
LEEALYEYQPLQIETLGPHVPELE | 4.15
LEEALYEYQPLQIETFGPHVPELE | 3.49
LEEALYEYQPLQIETYDPHVPELE | 2.21
LEEALYEYQPLQIETYTPHVPELE | 2.5
LEEALYEYQPLQIETYLPHVPELE | 1.85
LEEALYEYQPLQIETYCPHVPELE | 1.98
LEEALVEYQPLQIETYGPHVPELE | 3.33
LEEALGEYQPLQIETYGPHVPELE | 3.43
LEEALIEYQPLQIETYGPHVPELE | 2.58
LEEALYGYQPLQIETYGPHVPELE | 3.53
LEEALYFYQPLQIETYGPHVPELE | 1.87
LEEALYNYQPLQIETYGPHVPELE | 2.73

Variant | protein stability index
LEEALYLYQPLQIETYGPHVPELE | 2.25
LEEALYEYQHLQIETYGPHVPELE | 4.99
LEEALYEYQPLQIKTYGPHVPELE | 1.75
LEEALYEYQPLQIITYGPHVPELE | 1.81
LEEALYEYQPLQIETYGPRVPELE | 3.99
LEEALYEYQPLQIETYGPWVPELE | 1.5
LEEALYEYQPLQIETYGPEVPELE | 3.27
LEEALYEYQPLQIETYGPHVPFLE | 1.97
LEEALYEYQPLQIETYGPHVPVLE | 2.56
LEEMLYEYQPLQIETYGPHVPELE | 3.72
LEETLYEYQPLQIETYGPHVPELE | 4.27
LEERLYEYQPLQIETYGPHVPELE | 4.81
LEELLYEYQPLQIETYGPHVPELE | 3.57
LEEALYEYQPLQIETYGPHVPELN | 2.35
LEEALYEYQPLQIETYGPHVPELS | 2.54
LEEAIYEYQPLQIETYGPHVPELE | 4.87
LEEAYYEYQPLQIETYGPHVPELE | 4.46
LEEACYEYQPLQIETYGPHVPELE | 4.71
LEEAEYEYQPLQIETYGPHVPELE | 4.58
LEEASYEYQPLQIETYGPHVPELE | 4.59
LEEAFYEYQPLQIETYGPHVPELE | 4.33
LEEALYEYQPLQIETYGLHVPELE | 2.16
LEEALYEYQPLQIETYGRHVPELE | 3.78
LEEALYEYQPLQIETYGEHVPELE | 2.15

Variant | protein stability index
LEEALYEYQPLQIECYGPHVPELE | 2.18
LEEALYEYQPLQIEHYGPHVPELE | 3.91
FEEALYEYQPLQIETYGPHVPELE | 3.81
QEEALYEYQPLQIETYGPHVPELE | 5.08
DEEALYEYQPLQIETYGPHVPELE | 4.8
VEEALYEYQPLQIETYGPHVPELE | 4.15
LEEALYEYQPEQIETYGPHVPELE | 4.77
LEEALYEYQPKQIETYGPHVPELE | 4.26
LEEALYEYQPQQIETYGPHVPELE | 4.28
LEEALYEYQPWQIETYGPHVPELE | 4.27
LEEALYEYQPIQIETYGPHVPELE | 2.56
LEEALYEYQPLQIETYGPHVPEME | 3.2
LEEALYEYQPLQIETYGPHVPESE | 3.48
LIEALYEYQPLQIETYGPHVPELE | 2.67
LPEALYEYQPLQIETYGPHVPELE | 3.7
LAEALYEYQPLQIETYGPHVPELE | 2.26
LKEALYEYQPLQIETYGPHVPELE | 2.47
LELALYEYQPLQIETYGPHVPELE | 2
LEQALYEYQPLQIETYGPHVPELE | 3
LEEALYEYMPLQIETYGPHVPELE | 2.74
LEEALYEYWPLQIETYGPHVPELE | 2.79
LEEALYEYVPLQIETYGPHVPELE | 3.84

Variants of: B2
Assay: as above
Settings: c terminus: a fixed tail appended

Variant | protein stability index
VAHVESLQEKSQCALPEYVRSQYP | 3.74
VAHVESLQEKSQCALEEYVRSQGP | 4.14
VAHVESLQEKSQCALEEYVRSQSP | 4.36
VAHVESLQEKSQCALEEYVRSQLP | 3.75
VAHVESLQEKSQCALEEYVRSQQP | 4.25
VAHVESLQEKSQCALEEYVRSQIP | 3.9
PAHVESLQEKSQCALEEYVRSQYP | 4.13
SAHVESLQEKSQCALEEYVRSQYP | 3.53
AAHVESLQEKSQCALEEYVRSQYP | 3.29
HAHVESLQEKSQCALEEYVRSQYP | 3.55
DAHVESLQEKSQCALEEYVRSQYP | 4.15
VAHVESLQVKSQCALEEYVRSQYP | 2.72
VAHVESLQMKSQCALEEYVRSQYP | 2.2
VAHVESLQHKSQCALEEYVRSQYP | 3.23
VAHVESLQEKSQCALECYVRSQYP | 2.89
VAHVESLQEKSQCALEPYVRSQYP | 3.5
VAHVESLQEKSQCALEIYVRSQYP | 2.3
VAHVESLQEKSQCALEWYVRSQYP | 2.11
VAHVESLQEKSQCALEAYVRSQYP | 2.12
VAHVESLQEKSQCALEHYVRSQYP | 2.76
VAHVESLQEKSQCALEERVRSQYP | 4.26
VAHVESLQEKSDCALEEYVRSQYP | 4.32
VAHVESLQEKSLCALEEYVRSQYP | 2.68
VAHVESLQEKSICALEEYVRSQYP | 2.49

Variant | protein stability index
VAHVESLQEKSNCALEEYVRSQYP | 3.54
VAHVESLQEKSKCALEEYVRSQYP | 3.76
VAHVESLQEKSACALEEYVRSQYP | 3.33
VAHVESLQEKSQCALEEYVRQQYP | 3.53
VAHVESLQEKSQCALEEYVRGQYP | 3.67
VAHVESLQEKSQCALEEYVRTQYP | 3.95
VAHVESLQEKSQCALEEYVRNQYP | 3.92
VAHVESLQEKSQCALEEYVRHQYP | 3.46
VAHVESLQEKSQCALEEYVRPQYP | 4.04
VDHVESLQEKSQCALEEYVRSQYP | 3.85
VMHVESLQEKSQCALEEYVRSQYP | 3.03
VEHVESLQEKSQCALEEYVRSQYP | 4.27
VVHVESLQEKSQCALEEYVRSQYP | 3.27
VKHVESLQEKSQCALEEYVRSQYP | 3.48
VPHVESLQEKSQCALEEYVRSQYP | 3.76
VYHVESLQEKSQCALEEYVRSQYP | 3.25
VTHVESLQEKSQCALEEYVRSQYP | 3.73
VAHVESLQEKSQCALEEYFRSQYP | 3.34
VAHVESLQEKSQCALEEYCRSQYP | 3.7
VAHVESLQEKSQCALEEYDRSQYP | 4.26
VAHVESLQEKSQCALEEYVRSTYP | 3.27
VAHVESLQEKSQCALEEYVRSAYP | 3.63
VAHVESLQEKSQCALEEYVRSHYP | 3.56
VAHVESLQEKSQCALEEYVRSNYP | 3.54

Variant | protein stability index
VAHVESLQEKSQCALEEYVRSVYP | 3.5
VAHVESLQEKSQCALEEYVRSWYP | 2.1
VAHVESLQEKSQCAIEEYVRSQYP | 3.89
VAHVESLQEKSQCAREEYVRSQYP | 4.37
VAHVESLQEKSQCAAEEYVRSQYP | 4.75
VAHVHSLQEKSQCALEEYVRSQYP | 3.02
VAHVFSLQEKSQCALEEYVRSQYP | 1.92
VAHVVSLQEKSQCALEEYVRSQYP | 2.48
VAHVISLQEKSQCALEEYVRSQYP | 2.41
VAHVGSLQEKSQCALEEYVRSQYP | 2.9
VAHVESNQEKSQCALEEYVRSQYP | 4.68
VAHVESRQEKSQCALEEYVRSQYP | 3.89
VAHVESAQEKSQCALEEYVRSQYP | 3.92
VAHVESGQEKSQCALEEYVRSQYP | 3.55
VAHVESLQEKSQAALEEYVRSQYP | 4.7
VAHVESLQEKSQPALEEYVRSQYP | 3.92
VAHVESLQEKSQHALEEYVRSQYP | 4.4
VAHVESLQEKSQMALEEYVRSQYP | 3.98
VAHLESLQEKSQCALEEYVRSQYP | 3.08
VAHQESLQEKSQCALEEYVRSQYP | 4.03
VAHTESLQEKSQCALEEYVRSQYP | 3.59
VAHRESLQEKSQCALEEYVRSQYP | 4.06
VAHYESLQEKSQCALEEYVRSQYP | 2.59
VAHIESLQEKSQCALEEYVRSQYP | 3.45

Variant | protein stability index
VAHKESLQEKSQCALEEYVRSQYP | 3.79
VAHVESLQEKWQCALEEYVRSQYP | 2.61
VAHVESLQEKDQCALEEYVRSQYP | 4.5
VAHVESLQEKIQCALEEYVRSQYP | 2.8
VAHVESLQEKPQCALEEYVRSQYP | 4.04
VAHVESLQEKVQCALEEYVRSQYP | 2.48
VAHVESLQEKSQCALEEYVISQYP | 3.36
VAHVESLQEKSQCALEEYVTSQYP | 3.72
VAHVESLQEKSQCALEEYVYSQYP | 3.26
VAHVESLQEKSQCALEEYVVSQYP | 3.72
VAHVESLQEKSQCALEEYVHSQYP | 3.86
VAHVESLQEKSQCALEEYVESQYP | 4.51
VAHVESLEEKSQCALEEYVRSQYP | 3.99
VAHVESLLEKSQCALEEYVRSQYP | 2.89
VAHVESLVEKSQCALEEYVRSQYP | 3.02
VAHVESLAEKSQCALEEYVRSQYP | 3.03
VAHVESLQEKSQCKLEEYVRSQYP | 3.88
VAHVESLQEKSQCILEEYVRSQYP | 3.75
VAHVESLQEKSQCRLEEYVRSQYP | 3.43
VAHVESLQEKSQCGLEEYVRSQYP | 3.6
VAHVESLQEKSQCWLEEYVRSQYP | 2.5
VAHVESLQEKSQCPLEEYVRSQYP | 4.11
VAHVECLQEKSQCALEEYVRSQYP | 3.48
VAHVENLQEKSQCALEEYVRSQYP | 3.53

Variant | protein stability index
VAHVEHLQEKSQCALEEYVRSQYP | 3.26
VAHVEDLQEKSQCALEEYVRSQYP | 3.86
VAHVEELQEKSQCALEEYVRSQYP | 4.33
VAHVESLQERSQCALEEYVRSQYP | 4.09
VAHVESLQEESQCALEEYVRSQYP | 4.48
VAHVESLQETSQCALEEYVRSQYP | 3.92
VAHVESLQEASQCALEEYVRSQYP | 3.45
VAHVESLQEKSQCALEEYVRSQYF | 2.62
VAHVESLQEKSQCALEEYVRSQYH | 3.33
VAHVESLQEKSQCALEEYVRSQYT | 3.5
VAHVESLQEKSQCALEEYVRSQYY | 2.68
VAHVESLQEKSQCALEEYVRSQYM | 3.22
VAHVESLQEKSQCALEEYVRSQYG | 3.72
VAHVESLQEKSQCALEEYVRSQYR | 4.01
VALVESLQEKSQCALEEYVRSQYP | 2.38
VAWVESLQEKSQCALEEYVRSQYP | 2.26
VAFVESLQEKSQCALEEYVRSQYP | 2.63
VAYVESLQEKSQCALEEYVRSQYP | 2.77
VANVESLQEKSQCALEEYVRSQYP | 3.77
VARVESLQEKSQCALEEYVRSQYP | 3.45
VADVESLQEKSQCALEEYVRSQYP | 4.6
VAVVESLQEKSQCALEEYVRSQYP | 2.83
